Measurements reported in patent US20230189818A1, “RNA-BASED CONTROL OF BOTRYTIS” (priority 2021, published 2023).

Tests used:
[1] = system: Botrytis cinerea B05.10 isolate; experiment: Greenhouse whole plant assay (tomato 'Lanai', disease severity); type: in vivo; conditions: 25 g ai/ha; final rating day (rating #3); three runs; four-week-old 'Lanai' tomato plant
Method: Plant Tissue: Tomato seedlings, variety “Lanai”, were seeded then thinned to one plant per pot in an 18 cell tray. […] Plants were grown at a 23° C./17° C. day/night temperature with 10 hours of light each 24-hour period. The RH was ambient and plants were fertilized two times a day every day except for Sunday when they received only water. Plants were grown using Fafard brand medium (70-80% sphagnum peat moss, perlite, vermiculite, dolomite limestone and watering agent) for the entire experiment.
Fungal culture. A Botrytis cinerea B05.10 isolate was maintained, and spores were harvested as previously described for detached leaf assays, except a grape juice additive was not used for inoculum preparation.
Treatment of plants. Whole tomato plants were treated ˜24 hours before inoculation using the spray booth. A 0.07% Silwet L-77 solution was used as a spreader and added for a 0.07% final volume in water (Silwet L-77 brand Phyto Technology Laboratories, S7777 Lot #14D7777001 F). The spray booth deck was set to 20″ above the plant canopy and a twinjet 8002EVS nozzle with 100 mesh filter placed into the spray mechanism. The spray boom was calibrated before treatment application with specs as follows: 50 GPA rate, 1.25 MPH speed, 6′ spray length, single pass, and at 45 psi to get a catch of 133 mL in 10 seconds (+/−6 mL). Each treatment was replicated ten times for each experimental run.
Inoculation. Plants were inoculated using a mist-o-matic applicator, which is pressurized by manual pumping. The inoculum suspension was poured into the mist-o-matic immediately before inoculation in the GH space. The containers were only filled half-way and inoculum was applied evenly to the surface of all foliage with even coverage.
Incubation. Plants were incubated inside of a 40″ tall humidity chamber supported by PVC pipe and covered in 3M translucent plastic. A humidifier was inside the chamber and set to low and continuous humidity (filled with tap water). The temperature was D:24-20° C./N:20-18° C. with 15 hours of light, of which 9 hours was with supplemental lighting. RH was ambient and watering occurred everyday by sub-irrigation with the bench being flooded for 10 minutes before draining.
Rating. Tomato plants were rated three times during the two-week experiment with rating starting four days post-inoculation and occurring every three to four days after the initial rating date. Plants were rated for the number of lesions and disease severity, which is the percentage of the plant that was symptomatic including necrotic lesions, pathogen sporulation, and chlorosis.
Data analysis. […] Percent disease severity (%DS) was determined by the percent area of the tomato foliage with symptoms including lesions, chlorosis, necrosis, and wilting. Disease severity was rated at three dates (Rating #) over the 12-day test period. Treatments were compared to the untreated, inoculated control and a chemical standard. Statistical analysis was done using SAS JMP version 13.2.1 with treatments compared to the untreated, inoculated control and a chemical standard using Tukey-Kramer and student's T tests.

Botrytis cinerea conidia = experiment: In vitro liquid-based assay (fungal biomass, 96-well plates, Cytation 5); type: cell-based; conditions: co-incubated with conidia for three days, vs untreated control
Method: Fungal culture. The Botrytis cinerea was plated each week the culture onto Malt Extract Agar (MEA) from long-term storage on silica stored at 4° C. Three pellets of silica were added to the center of a MEA agar plate and grown at room temperature without parafilm/tape seal for 10-14 days before use; a culture 12 days old was typically used.
Spore and media preparation. A pure culture of B. cinerea was flooded with a 0.01% Triton x-100 solution and conidia scraped free with a sterile hockey stick. The suspension was transferred to two, 1.5 mL centrifuge tubes and centrifuged at 8000 rpm for two minutes. The supernatant was discarded, pelleted spores washed twice with sterile water, then resuspended in sterile water. Conidia were quantified using a hemacytometer and diluted to a final concentration of 5000 conidia/mL stock. A stock solution of 1.25× minimal media was prepared for the assay setup using the components below. Once the stock solution was made, the pH was adjusted to 6.0 using NaOH or KOH, then filter sterilized through a 0.2 um filter tower and vacuum pump and stored at 4° C. The Kao & Michayluk Vitamins (100×) is a filter sterilized stock solution. The stock contains vitamins and amino acids as described by Kao & Michayluk. After filter sterilization, 20 mg of 4-Aminobenzoic acid in 100 ml of solution was added.
Experimental setup. Screening assays were setup in 96-well plates with conidia co-incubated with treatments (controls and dsRNAs) for three days before determining fungal biomass. Each treatment was replicated eight times within a single plate. In each well consisted of 12.5 μl of conidia suspension, 25 μl of the treatment, 12.5 μl of sterile deionized water, and 200 μl of minimal media. Each plate was covered with a breath right film and placed in the percival growth chamber at 23° C. on the shaking platform set to 120 RPM with 24-hour lighting. Plates were incubated for 72 hours before determining fungal growth.
Reading assay plate. Fungal biomass was determined by reading plates with the Cytation 5 machine. The program was set to compile 8 photo slices per well under brightfield microscopy with a 2.5× lens to measure biomass.
Data analysis. Analysis will automatically run on Cytation5 to determine final biomass.
Results are shown in Table 1B representing the average reduction in biomass vs. control for tested sequences across several runs described above.

[2] = system: Botrytis cinerea isolate (B05.10); experiment: Detached leaf assay (tomato leaflets, lesion size); type: in vivo; conditions: five days post inoculation, vs untreated inoculated control
Method: Plant tissue. Tomato plants, variety Brandywine, were grown in the greenhouse for 3 weeks before harvesting the first true leaves for assays. Nodes 2-4 were prioritized for harvest and only lateral leaflets were used for assays. Leaflets of approximately the same size were used each week and were randomized among treatments. Detached leaflets were immediately brought into the lab for treatment and used within 4 hours of harvest. Detached leaflets were kept at 4° C. until they were treated and placed onto a 1% water agar medium for incubation.
Fungal culture. A Botrytis cinerea isolate (B05.10) was preserved on silica for long-term storage and pulled from these tubes stored at 4° C. for growth on a nutritive medium. Three pellets of silica were added to the center of a Malt Extract Agar (MEA) agar plate and grown at room temperature without parafilm/tape seal for ˜14 days, or until abundant conidia formation, before use.
Treatment of leaflets. Leaflets were treated 24 hours before inoculation and applied using an atomizer to get a fine mist of small droplets entirely covering the leaflet. Silwet L-77 was used as a spreader and added for a 0.03% final concentration (Silwet L-77 brand Phyto Technology Laboratories, S7777 Lot #14D7777001 F). The inoculated control was sprayed with the same volume of sterile DI water with Silwet L-77 in the absence of fungicide or experimental material. Leaflets were spray treated by laying them on a paper towel and holding the atomizer ˜6″ away from the leaflet for applications. Treated leaves were placed on a 1% water agar (10 g Bacto Agar, Difco, in 1 L deionized water, sterilized for 30 minutes at 121° C. and poured when reached a temp of 55° C. into 100×20 mm Petri dishes), with lids of the Petri dishes placed back on before putting Petri dishes under plastic bags to maintain humidity before inoculation the following day. Petri dishes of treated leaflets were left on the lab counter until the following day. Each treatment was replicated ten times with each replicate being a single treated leaflet with two inoculation sites, one on each side of the leaf midvein.
Inoculation. The conidial suspension was prepared by pouring a 7% white grape juice solution onto the culture plate, then scraping the plate with a sterile spatula to dislodge the spores and mycelia. The grape juice solution was prepared by mixing Welch's brand organic white grape juice into sterile deionized water. After dislodging the spores and mycelia of the culture, the suspension was poured through two layers of cheesecloth to remove fungal mycelia and catch the conidial suspension in a clean 50 mL conical tube. Approximately 3 uL of TWEEN 20 was added to conidial suspension to prevent sticking to conical tube. The spore concentration was determined using a Neubauer Improved hemocytometer and inoculum was diluted with more 7% grape juice until a spore concentration of 1×10^5 conidia/mL was reached. Inoculum was used to inoculate host tissue within 2 hours of preparation. Each tomato leaflet was inoculated twice, with inoculation sites placed one per side of the leaflet midvein. A 10 μL volume of spore suspension was placed at each inoculation site using a repeater pipette. Special care was taken not to touch the tip to leaflet surface to avoid contamination between treatments.
Incubation. Petri dishes were placed on lunch trays 6 plates high and moved to an incubator. The incubator was humidity controlled and holds at ˜75% relative humidity. The incubator was kept on 12/12 light/dark days and is set to a temperature of 23° C.
Rating. Measurements were taken at five days post inoculation (DPI). Each lesion that developed was measured using electronic calipers in 2 directions perpendicular to each other to help determine lesion diameter.
Data analysis. Data was analyzed using the SAS JMP statistical program (version 13.2.1) with comparisons made to the untreated, inoculated control. […]

Row | Molecule | % control [1] [%] | Average % Reduction in Biomass (Botrytis cinerea conidia; 25 ppm dsRNA) [%] | Average % Reduction in Biomass (Botrytis cinerea conidia; 150 ppm dsRNA) [%] | Average % Reduction in Lesion Size ([2]; 30 ppm) [%] | Average % Reduction in Lesion Size ([2]; 50 ppm) [%]
1 | GS245: dsRNA trigger targeting B. cinerea Sec18/Cdc48_2 (XM_024693092.1); trigger SEQ ID NO 13, RNA 25, reverse complement 37 (nucleic acid, listed as Botrytis cinerea) sense: UCAAGAGAGCCGAAGGUCAUAAACGGUCCUGAAGUGCUUAAUAAAUACGUUGGUCAAUCCGAAGAAAAUAUCCGAAAGCUUUUUGCCGAUGCCGAAAAGGAGUACAAGGAAAAGGGAGACGAGAGUGGUCUUCAUAUCAUCAUUUUCGACGAAUUGGAUGCCGUUUGCAAACAAAGAGGAAGUGGAUCAGGUGGCGGAACUGGUGUUGGCGACAGUGUGGUCAAUCAACUGUUGUCUAAGCUUGAUGGUGUUGACCAGCUCAAUAACAUUCUACUUAUUGGAAUGACCAAUCGUAUGGAUAUGAUUGAUGACGCGCUUCUCAGACCCGGACGUUUAGAAGUUCACAUGGAAAUUUCCCUGCCAGAUGAAGCUGGCAGAGCACAAAUUCUUAAGAUUCAUACGUCCAAGAUGUUAAAGAAUGAUGUCAUGGAUACAGAUGUCGAUGUUGCUGAACUUGCUCAUCUAACCAAGAACUUCUCGGGAGCUGAAAUUG antisense: CAAUUUCAGCUCCCGAGAAGUUCUUGGUUAGAUGAGCAAGUUCAGCAACAUCGACAUCUGUAUCCAUGACAUCAUUCUUUAACAUCUUGGACGUAUGAAUCUUAAGAAUUUGUGCUCUGCCAGCUUCAUCUGGCAGGGAAAUUUCCAUGUGAACUUCUAAACGUCCGGGUCUGAGAAGCGCGUCAUCAAUCAUAUCCAUACGAUUGGUCAUUCCAAUAAGUAGAAUGUUAUUGAGCUGGUCAACACCAUCAAGCUUAGACAACAGUUGAUUGACCACACUGUCGCCAACACCAGUUCCGCCACCUGAUCCACUUCCUCUUUGUUUGCAAACGGCAUCCAAUUCGUCGAAAAUGAUGAUAUGAAGACCACUCUCGUCUCCCUUUUCCUUGUACUCCUUUUCGGCAUCGGCAAAAAGCUUUCGGAUAUUUUCUUCGGAUUGACCAACGUAUUUAUUAAGCACUUCAGGACCGUUUAUGACCUUCGGCUCUCUUGA | 33 | 12 | 7 | 34.78 | 30.52
2 | GS2651: dsRNA trigger targeting B. cinerea Bcsec15 (XM_024692064.1); trigger SEQ ID NO 52, RNA 56, reverse complement 60 (nucleic acid, listed as Botrytis cinerea) sense: UAUGCCUGUCAAUAGCGAAGAAGACUUUGAUAAAAUCAUUCAAGUCAGUUGGUAUGUUCCGGACAGACCGAAAGAAGAAUACACAUUCCCCGGUGUAUUACCAUUCUCCCAGAUGUACCCAAUGUGCUGUAUAGAUAUCAGAAAUUUCCUGAAUCGAUUCUACUUCAUAAUGGAUGAUCAUUUUCAACAGCCAAACAUUAUUGAUGAGACACUUAAGAAGUCGAUAGAUGAGCUUCUGUCUGAGGAUAUUU antisense: AAAUAUCCUCAGACAGAAGCUCAUCUAUCGACUUCUUAAGUGUCUCAUCAAUAAUGUUUGGCUGUUGAAAAUGAUCAUCCAUUAUGAAGUAGAAUCGAUUCAGGAAAUUUCUGAUAUCUAUACAGCACAUUGGGUACAUCUGGGAGAAUGGUAAUACACCGGGGAAUGUGUAUUCUUCUUUCGGUCUGUCCGGAACAUACCAACUGACUUGAAUGAUUUUAUCAAAGUCUUCUUCGCUAUUGACAGGCAUA | – | 21 | 54 | 9.38 | 12.74
